Data set [1] deals with T1, MadR (Mycobacterium tuberculosis H37Rv) (UniProt P9WMD9).
T1 sequence: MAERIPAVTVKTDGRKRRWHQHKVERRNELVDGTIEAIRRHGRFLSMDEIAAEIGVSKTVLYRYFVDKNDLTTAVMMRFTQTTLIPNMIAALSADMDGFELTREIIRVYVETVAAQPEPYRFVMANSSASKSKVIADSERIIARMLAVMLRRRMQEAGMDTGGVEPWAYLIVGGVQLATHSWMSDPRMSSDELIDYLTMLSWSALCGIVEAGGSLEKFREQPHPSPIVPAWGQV
Nature of the data set: EMSA.

The next data set deals with T2, MadR (Mycobacterium tuberculosis H37Rv, UniProt P9WMD9 1-234).
T2 sequence: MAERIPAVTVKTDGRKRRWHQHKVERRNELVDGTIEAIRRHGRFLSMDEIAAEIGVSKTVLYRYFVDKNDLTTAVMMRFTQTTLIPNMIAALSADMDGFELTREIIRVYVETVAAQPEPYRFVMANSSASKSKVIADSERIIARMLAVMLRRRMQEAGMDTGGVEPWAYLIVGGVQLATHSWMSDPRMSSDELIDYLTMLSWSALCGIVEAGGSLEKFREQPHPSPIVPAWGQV
Nature of the data set: EMSA. Conditions: protein: recombinant; tags: His-tag implied (pET28a, cobalt IMAC); chain copies: 2; blunt. For orientation: Mobility shift assays separate free from complexed probe on a gel.

Regarding “GGGCCGAACATACTCACCCGGATCGGAGGGCCGAGGACACGGTCGAACGAGGGGCATGACCCGGTGCGGGGCTTCTTGCACTCGGCATAGGCGAGTGCTAAGAATAACGTTGGCACTCGCGACCGGTGAGTGCTAGGTCGGGACGGTGAGGCCAGGCCCGTCGTCGCAGCGAGTGGCAGCGAGGACAACTTGAGCCGTCCGTCGCGGGCACTGCGCCCGGCCAGCGTAAGTAGCGGGGTTGCCGTCACCCGGTGACCCCCGTTTCATCCCCGATCCGGAGGAATCACTTCGCA (double strand) [hsp60 promoter]”, the binding result in data set [1] was “no binding”.

B1: desA2 promoter -36/+14 (dsDNA)
DNA 1: TTCACGAAATCTGTGTATGCGAGTTACAGTTACCGCATGGCACAGAAACC
DNA 2: GGTTTCTGTGCCATGCGGTAACTGTAACTCGCATACACAGATTTCGTGAA
B1: the binding result with MadR was “binds”.

B2: desA1 promoter -19/+31 (dsDNA)
DNA 1: CAGTTATCTGTGTCTAATGGTTGCAGTCAATATATCTGTGTCTCTCGGTA
DNA 2: TACCGAGAGACACAGATATATTGACTGCAACCATTAGACACAGATAACTG
For the molecule B2, the binding result in the data set with MadR is listed as “binds”.
